Residue numbers refer to the chain shown, from its start.
Legend:
[1] = target: Exo1 (form in crosslinking assay not stated);Mre11-Rad50-Xrs2 (MRX);Sae2 (Saccharomyces cerevisiae (budding …, UniProt P39875;P32829;P12753;P33301;P46946 1-702;1-692;1-1312;1-854;1-345, ||)); assay: UV photo-crosslinking
[2] = target: T1, Exo1 (form in crosslinking assay not stated) (Saccharomyces cerevisiae (budding yeast), UniProt P39875 1-702); assay: UV photo-crosslinking
T1 sequence: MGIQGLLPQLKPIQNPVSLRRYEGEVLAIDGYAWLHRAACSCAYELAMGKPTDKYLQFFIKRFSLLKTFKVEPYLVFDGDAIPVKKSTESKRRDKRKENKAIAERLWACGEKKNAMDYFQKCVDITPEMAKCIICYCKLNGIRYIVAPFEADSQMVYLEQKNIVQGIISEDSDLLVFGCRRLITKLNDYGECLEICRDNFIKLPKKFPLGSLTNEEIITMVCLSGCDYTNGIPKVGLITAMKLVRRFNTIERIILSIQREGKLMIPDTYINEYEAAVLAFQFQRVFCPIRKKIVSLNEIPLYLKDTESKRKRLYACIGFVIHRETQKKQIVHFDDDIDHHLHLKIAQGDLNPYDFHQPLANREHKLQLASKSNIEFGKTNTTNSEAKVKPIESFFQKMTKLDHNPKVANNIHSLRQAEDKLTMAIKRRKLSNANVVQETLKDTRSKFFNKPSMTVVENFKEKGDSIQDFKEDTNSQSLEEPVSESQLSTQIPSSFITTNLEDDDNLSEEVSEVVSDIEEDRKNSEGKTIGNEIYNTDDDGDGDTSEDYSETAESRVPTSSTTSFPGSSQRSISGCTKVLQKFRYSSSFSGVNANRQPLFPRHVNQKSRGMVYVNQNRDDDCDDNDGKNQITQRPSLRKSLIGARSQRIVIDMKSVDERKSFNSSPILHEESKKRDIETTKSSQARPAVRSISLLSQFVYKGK

Sae2 [3] = target: T2, Sae2 (Saccharomyces cerevisiae (budding yeast), UniProt P46946 1-345); assay: UV photo-crosslinking
T2 sequence: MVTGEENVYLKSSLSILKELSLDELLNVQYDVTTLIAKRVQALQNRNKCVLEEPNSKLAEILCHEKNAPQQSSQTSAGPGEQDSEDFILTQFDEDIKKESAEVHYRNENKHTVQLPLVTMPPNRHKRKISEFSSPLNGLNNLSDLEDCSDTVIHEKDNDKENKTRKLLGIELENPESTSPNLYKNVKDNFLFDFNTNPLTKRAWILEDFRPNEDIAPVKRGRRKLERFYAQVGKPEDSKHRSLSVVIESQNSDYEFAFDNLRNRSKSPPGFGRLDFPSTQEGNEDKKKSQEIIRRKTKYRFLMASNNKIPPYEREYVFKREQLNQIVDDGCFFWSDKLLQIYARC

[4] = target: Exo1 D173A;Mre11-Rad50-Xrs2 (MRX) (Saccharomyces cerevisiae (budding …, UniProt P39875;P32829;P12753;P33301 1-702;1-692;1-1312;1-854, D173A|)); assay: pull-down
[5] = target: Mre11-Rad50-Xrs2 (MRX);Sae2 (Saccharomyces cerevisiae (budding …, UniProt P32829;P12753;P33301;P46946 1-692;1-1312;1-854;1-345, |)); assay: EMSA
Sae2 [6] = target: T2, Sae2; assay: EMSA
M(H125N)RX = M(H125N)RX (Saccharomyces cerevisiae (budding yeast), UniProt P32829;P12753;P33301 1-692;1-1312;1-854, H125N;Mre11); assay: EMSA
Exo1 D173A = target: T3, Exo1 D173A (Saccharomyces cerevisiae (budding yeast), UniProt P39875 1-702, D173A); assay: EMSA
T3 sequence: T1 sequence with D173A

Sequence of Exo1 (form in crosslinking assay not stated);Mre11-Rad50-Xrs2 (MRX);Sae2 (Saccharomyces cerevisiae (P32829 whole entry, chain 2 of 3): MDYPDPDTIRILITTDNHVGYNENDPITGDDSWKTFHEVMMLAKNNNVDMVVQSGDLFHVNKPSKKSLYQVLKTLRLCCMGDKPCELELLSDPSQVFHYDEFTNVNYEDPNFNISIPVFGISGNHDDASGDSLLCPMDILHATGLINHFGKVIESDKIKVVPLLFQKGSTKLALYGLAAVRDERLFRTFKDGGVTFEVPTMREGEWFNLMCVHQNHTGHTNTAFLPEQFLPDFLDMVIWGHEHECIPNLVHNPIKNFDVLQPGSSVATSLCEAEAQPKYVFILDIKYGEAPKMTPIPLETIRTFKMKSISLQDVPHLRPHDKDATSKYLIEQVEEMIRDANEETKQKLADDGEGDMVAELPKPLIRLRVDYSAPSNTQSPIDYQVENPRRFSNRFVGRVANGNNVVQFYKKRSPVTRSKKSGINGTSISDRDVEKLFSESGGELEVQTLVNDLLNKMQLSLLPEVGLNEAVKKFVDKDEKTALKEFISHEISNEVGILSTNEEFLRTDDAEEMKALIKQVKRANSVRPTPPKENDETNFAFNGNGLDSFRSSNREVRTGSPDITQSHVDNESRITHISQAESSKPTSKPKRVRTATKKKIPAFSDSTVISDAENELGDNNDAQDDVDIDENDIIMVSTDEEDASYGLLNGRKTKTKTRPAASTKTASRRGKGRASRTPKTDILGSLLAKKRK
Sequence of Exo1 (form in crosslinking assay not stated);Mre11-Rad50-Xrs2 (MRX);Sae2 (Saccharomyces cerevisiae (P12753 whole entry, chain 3 of 3): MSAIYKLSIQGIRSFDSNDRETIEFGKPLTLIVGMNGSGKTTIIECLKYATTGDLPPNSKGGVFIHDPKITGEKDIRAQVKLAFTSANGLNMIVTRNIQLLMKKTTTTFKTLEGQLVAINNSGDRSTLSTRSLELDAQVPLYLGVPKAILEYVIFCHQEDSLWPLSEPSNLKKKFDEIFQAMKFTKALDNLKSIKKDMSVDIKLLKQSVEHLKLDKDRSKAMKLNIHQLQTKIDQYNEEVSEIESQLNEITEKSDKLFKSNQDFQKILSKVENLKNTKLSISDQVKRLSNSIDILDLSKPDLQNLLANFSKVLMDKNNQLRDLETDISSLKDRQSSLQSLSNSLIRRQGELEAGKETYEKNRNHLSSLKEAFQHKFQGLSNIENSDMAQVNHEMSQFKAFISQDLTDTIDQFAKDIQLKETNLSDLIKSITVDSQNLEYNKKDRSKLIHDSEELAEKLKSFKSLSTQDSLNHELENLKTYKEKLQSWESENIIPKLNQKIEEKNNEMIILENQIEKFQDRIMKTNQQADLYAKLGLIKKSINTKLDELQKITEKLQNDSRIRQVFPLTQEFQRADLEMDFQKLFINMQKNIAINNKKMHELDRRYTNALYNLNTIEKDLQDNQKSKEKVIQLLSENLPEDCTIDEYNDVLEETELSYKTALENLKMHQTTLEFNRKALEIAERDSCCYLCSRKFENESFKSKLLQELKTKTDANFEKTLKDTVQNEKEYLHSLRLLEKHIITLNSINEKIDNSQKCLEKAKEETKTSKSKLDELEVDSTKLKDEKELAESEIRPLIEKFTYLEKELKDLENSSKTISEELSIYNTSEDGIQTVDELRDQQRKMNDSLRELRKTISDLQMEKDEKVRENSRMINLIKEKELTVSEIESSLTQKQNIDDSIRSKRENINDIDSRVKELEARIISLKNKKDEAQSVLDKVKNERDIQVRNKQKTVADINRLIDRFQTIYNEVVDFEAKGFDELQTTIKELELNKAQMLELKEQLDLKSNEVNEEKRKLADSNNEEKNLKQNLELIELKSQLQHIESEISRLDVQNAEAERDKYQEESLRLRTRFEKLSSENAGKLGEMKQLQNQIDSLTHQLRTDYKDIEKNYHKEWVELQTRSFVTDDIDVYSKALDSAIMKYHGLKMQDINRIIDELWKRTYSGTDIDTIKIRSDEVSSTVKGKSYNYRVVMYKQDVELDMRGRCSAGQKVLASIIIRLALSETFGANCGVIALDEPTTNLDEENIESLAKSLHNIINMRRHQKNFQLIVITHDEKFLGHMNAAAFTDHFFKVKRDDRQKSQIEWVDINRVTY
Sequence of Exo1 (form in crosslinking assay not stated);Mre11-Rad50-Xrs2 (MRX);Sae2 (Saccharomyces cerevisiae (P33301 whole entry, chain 4 of 3): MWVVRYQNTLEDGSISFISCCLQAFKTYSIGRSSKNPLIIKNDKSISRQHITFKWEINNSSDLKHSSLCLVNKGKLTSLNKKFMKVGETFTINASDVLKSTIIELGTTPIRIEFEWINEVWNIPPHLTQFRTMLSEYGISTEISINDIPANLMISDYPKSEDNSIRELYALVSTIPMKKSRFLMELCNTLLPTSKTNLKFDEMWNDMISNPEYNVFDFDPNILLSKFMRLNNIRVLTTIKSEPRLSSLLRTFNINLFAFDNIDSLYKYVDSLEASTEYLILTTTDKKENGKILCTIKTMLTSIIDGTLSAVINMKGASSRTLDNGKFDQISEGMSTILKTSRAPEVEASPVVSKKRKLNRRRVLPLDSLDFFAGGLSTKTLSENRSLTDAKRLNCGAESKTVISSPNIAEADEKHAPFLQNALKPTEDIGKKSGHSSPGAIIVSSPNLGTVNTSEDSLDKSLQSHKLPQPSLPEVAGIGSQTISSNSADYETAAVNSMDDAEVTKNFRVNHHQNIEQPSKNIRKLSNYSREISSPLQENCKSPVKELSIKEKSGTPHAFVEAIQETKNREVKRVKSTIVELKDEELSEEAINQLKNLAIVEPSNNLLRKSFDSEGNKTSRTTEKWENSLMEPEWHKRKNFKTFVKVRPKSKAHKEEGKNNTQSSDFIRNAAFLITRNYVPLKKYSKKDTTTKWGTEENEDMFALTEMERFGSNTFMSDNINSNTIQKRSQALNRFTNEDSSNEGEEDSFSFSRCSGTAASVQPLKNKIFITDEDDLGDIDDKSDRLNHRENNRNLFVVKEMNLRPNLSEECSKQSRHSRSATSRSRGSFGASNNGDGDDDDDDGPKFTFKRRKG
Sequence of Mre11-Rad50-Xrs2 (MRX);Sae2 (Saccharomyces cerevisiae (P32829 whole entry, chain 1 of 3): as the sequence (P32829 whole entry, chain 2 of 3) above
Sequence of Mre11-Rad50-Xrs2 (MRX);Sae2 (Saccharomyces cerevisiae (P12753 whole entry, chain 2 of 3): as the sequence (P12753 whole entry, chain 3 of 3) above
Sequence of Mre11-Rad50-Xrs2 (MRX);Sae2 (Saccharomyces cerevisiae (P33301 whole entry, chain 3 of 3): as the sequence (P33301 whole entry, chain 4 of 3) above
Sequence of Exo1 D173A;Mre11-Rad50-Xrs2 (MRX) (Saccharomyces cerevisiae (P32829 whole entry, chain 2 of 3): as the sequence (P32829 whole entry, chain 2 of 3) above
Sequence of Exo1 D173A;Mre11-Rad50-Xrs2 (MRX) (Saccharomyces cerevisiae (P12753 whole entry, chain 3 of 3): as the sequence (P12753 whole entry, chain 3 of 3) above
Sequence of Exo1 D173A;Mre11-Rad50-Xrs2 (MRX) (Saccharomyces cerevisiae (P33301 whole entry, chain 4 of 3): as the sequence (P33301 whole entry, chain 4 of 3) above
Sequence of M(H125N)RX (P32829 whole entry H125N, chain 1 of 3): as the sequence (P32829 whole entry, chain 2 of 3) above, with H125N counted along it
Sequence of M(H125N)RX (P12753 whole entry, stated change not applied, chain 2 of 3): as the sequence (P12753 whole entry, chain 3 of 3) above
Sequence of M(H125N)RX (P33301 whole entry, stated change not applied, chain 3 of 3): as the sequence (P33301 whole entry, chain 4 of 3) above

B1: TP2722/TP2723 90 bp, 5' azide (dsDNA)
DNA 1: AAGTAAATCATTAATCTAACAATGCGCTCATCGTCATCCTCACATCGGCCTGTCTTACACAGTGCTAAGCTCGGAACAAAAACCCTGCAG
DNA 2: CTGCAGGGTTTTTGTTCCGAGCTTAGCACTGTGTAAGACAGGCCGATGTGAGGATGACGATGAGCGCATTGTTAGATTAATGATTTACTT
modifications: 5 phosphorothioates at 5' end of each strand, azidophenacyl (APB) modified
Does B1 bind [1]?
Result: binds

Does B1 bind [2]?
Result: binds

B2: TP771/TP828 90 bp, 3' azide (dsDNA)
DNA 1: B1 DNA 1
DNA 2: B1 DNA 2
modifications: 5 phosphorothioates at 3' end of each strand, azidophenacyl (APB) modified
Does B2 bind (Sae2 [3])?
Result: binds

B3: TP2399/TP2400 blunt 100 bp duplex, pull-down (dsDNA)
DNA 1: GCTAAAGCGAAGAACACTGAAAGGTTCAAAACCTCCACTATAGTCCACTCGCAGTCGTACAAGAGGCTTCTCTGGCTGGTGAGAATTACCCAGACGTTCC
DNA 2: GGAACGTCTGGGTAATTCTCACCAGCCAGAGAAGCCTCTTGTACGACTGCGAGTGGACTATAGTGGAGGTTTTGAACCTTTCAGTGTTCTTCGCTTTAGC
Does B3 bind [4]?
Result: binds

B4: TP74/TP2680 42 bp duplex with 4 nt 3' overhangs (dsDNA)
DNA 1: CTGCAGGGTTTTTGTTCCAGTCTGTAGCACTGTGTAAGACAGGCCA
DNA 2: CTGTCTTACACAGTGCTACAGACTGGAACAAAAACCCTGCAGTACA
Does B4 bind [5]?
Result: binds

Does B4 bind (Sae2 [6])?
Result: binds

Does B4 bind (M(H125N)RX)?
Result: binds

B5: TP74/TP2681 branched substrate (dsDNA)
DNA 1: B4 DNA 1
DNA 2: CTAGCTACTTGACACAGTGCTACAGACTGGAACTGACTTCATGCTA
Does B5 bind (Exo1 D173A)?
Result: binds
